# Source: patent US20210371503A1
# Where two headings read alike, the source gives them in different places.
# Legend:
# [1] = biological target: the antigen (SARS-CoV-2 spike (S) protein, form not stated in Example 13) (SARS-CoV-2) (UniProt P0DTC2); assay: SPR relative binding activity; 1:5 diluted 10 mg/mL, formulation F7, initial
# [2] = biological target: the antigen (SARS-CoV-2 spike (S) protein, form not stated in Example 13) (SARS-CoV-2) (UniProt P0DTC2); assay: SPR relative binding activity; formulation F5, control unnebulized
# [3] = biological target: the antigen (SARS-CoV-2 spike (S) protein, form not stated in Example 13) (SARS-CoV-2) (UniProt P0DTC2); assay: SPR relative binding activity; 1:5 diluted 10 mg/mL, formulation F6, nebulized
# [4] = biological target: the antigen (SARS-CoV-2 spike (S) protein, form not stated in Example 13) (SARS-CoV-2) (UniProt P0DTC2); assay: SPR relative binding activity; formulation F5, nebulized with Aerogen Solo
# [5] = biological target: the antigen (SARS-CoV-2 spike (S) protein, form not stated in Example 13) (SARS-CoV-2) (UniProt P0DTC2); assay: SPR relative binding activity; formulation F5, nebulized with eFlow-Rapid
# [6] = biological target: the antigen (SARS-CoV-2 spike (S) protein, form not stated in Example 13) (SARS-CoV-2) (UniProt P0DTC2); assay: SPR relative binding activity; undiluted 50 mg/mL, formulation F5, nebulized
# [7] = biological target: the antigen (SARS-CoV-2 spike (S) protein, form not stated in Example 13) (SARS-CoV-2) (UniProt P0DTC2); assay: SPR relative binding activity; 1:5 diluted 10 mg/mL, formulation F7, nebulized
# [8] = biological target: the antigen (SARS-CoV-2 spike (S) protein, form not stated in Example 13) (SARS-CoV-2) (UniProt P0DTC2); assay: SPR relative binding activity; formulation F5, nebulized with Droh
# [9] = biological target: the antigen (SARS-CoV-2 spike (S) protein, form not stated in Example 13) (SARS-CoV-2) (UniProt P0DTC2); assay: SPR relative binding activity; formulation F5, nebulized with Pariboy
# [10] = biological target: the antigen (SARS-CoV-2 spike (S) protein, form not stated in Example 13) (SARS-CoV-2) (UniProt P0DTC2); assay: SPR relative binding activity; undiluted 50 mg/mL, formulation F7, nebulized
# [11] = biological target: the antigen (SARS-CoV-2 spike (S) protein, form not stated in Example 13) (SARS-CoV-2) (UniProt P0DTC2); assay: SPR relative binding activity; undiluted 50 mg/mL, formulation F6, nebulized
# [12] = biological target: the antigen (SARS-CoV-2 spike (S) protein, form not stated in Example 13) (SARS-CoV-2) (UniProt P0DTC2); assay: SPR relative binding activity; reference standard, initial
# [13] = biological target: the antigen (SARS-CoV-2 spike (S) protein, form not stated in Example 13) (SARS-CoV-2) (UniProt P0DTC2)
# [14] = biological target: the antigen (SARS-CoV-2 spike (S) protein, form not stated in Example 13) (SARS-CoV-2) (UniProt P0DTC2); assay: SPR relative binding activity; undiluted 50 mg/mL, formulation F8, initial
# [15] = biological target: the antigen (SARS-CoV-2 spike (S) protein, form not stated in Example 13) (SARS-CoV-2) (UniProt P0DTC2); assay: SPR relative binding activity; 1:5 diluted 10 mg/mL, formulation F5, initial
# [16] = biological target: the antigen (SARS-CoV-2 spike (S) protein, form not stated in Example 13) (SARS-CoV-2) (UniProt P0DTC2); assay: SPR relative binding activity; 1:5 diluted 10 mg/mL, formulation F6, initial
# [17] = biological target: the antigen (SARS-CoV-2 spike (S) protein, form not stated in Example 13) (SARS-CoV-2) (UniProt P0DTC2); assay: SPR relative binding activity; undiluted 50 mg/mL, formulation F8, nebulized
# [18] = biological target: the antigen (SARS-CoV-2 spike (S) protein, form not stated in Example 13) (SARS-CoV-2) (UniProt P0DTC2); assay: SPR relative binding activity; undiluted 50 mg/mL, formulation F5, initial
# [19] = biological target: the antigen (SARS-CoV-2 spike (S) protein, form not stated in Example 13) (SARS-CoV-2) (UniProt P0DTC2); assay: SPR relative binding activity; 1:5 diluted 10 mg/mL, formulation F8, initial
# [20] = biological target: the antigen (SARS-CoV-2 spike (S) protein, form not stated in Example 13) (SARS-CoV-2) (UniProt P0DTC2); assay: SPR relative binding activity; 1:5 diluted 10 mg/mL, formulation F8, nebulized
# [21] = biological target: the antigen (SARS-CoV-2 spike (S) protein, form not stated in Example 13) (SARS-CoV-2) (UniProt P0DTC2); assay: SPR relative binding activity; 1:5 diluted 10 mg/mL, formulation F5, nebulized
# [22] = biological target: the antigen (SARS-CoV-2 spike (S) protein, form not stated in Example 13) (SARS-CoV-2) (UniProt P0DTC2); assay: SPR relative binding activity; undiluted 50 mg/mL, formulation F6, initial
# [23] = biological target: the antigen (SARS-CoV-2 spike (S) protein, form not stated in Example 13) (SARS-CoV-2) (UniProt P0DTC2); assay: SPR relative binding activity; undiluted 50 mg/mL, formulation F7, initial
# Sequence of DZIF-10c (antibody) (VH): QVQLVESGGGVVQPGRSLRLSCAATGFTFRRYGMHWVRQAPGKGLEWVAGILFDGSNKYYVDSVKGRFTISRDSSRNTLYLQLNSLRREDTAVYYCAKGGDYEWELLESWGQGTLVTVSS
# Sequence of DZIF-10c (antibody) (VL): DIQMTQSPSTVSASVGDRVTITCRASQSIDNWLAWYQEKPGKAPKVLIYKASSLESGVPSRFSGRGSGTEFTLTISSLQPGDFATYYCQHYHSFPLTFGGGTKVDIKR
substance,measurement,setting,value
DZIF-10c (antibody),SPR Binding Activity (RLCA %),[1],96%
same,SPR Binding Activity (RLCA %),[2],100%
same,SPR Binding Activity (RLCA %),[3],96%
same,SPR Binding Activity (RLCA %),[4],100%
same,SPR Binding Activity (RLCA %),[5],100%
same,SPR Binding Activity (RLCA %),[6],96%
same,SPR Binding Activity (RLCA %),[7],96%
same,SPR Binding Activity (RLCA %),[8],100%
same,SPR Binding Activity (RLCA %),[9],100%
same,SPR Binding Activity (RLCA %),[10],96%
same,SPR Binding Activity (RLCA %),[11],96%
same,SPR Binding Activity (RLCA %),[12],100%
same,SPR Binding Activity (RLCA %),[13],100%
same,SPR Binding Activity (RLCA %),[14],96%
same,SPR Binding Activity (RLCA %),[15],96%
same,SPR Binding Activity (RLCA %),[16],96%
same,SPR Binding Activity (RLCA %),[17],96%
same,SPR Binding Activity (RLCA %),[18],96%
same,SPR Binding Activity (RLCA %),[19],96%
same,SPR Binding Activity (RLCA %),[20],96%
same,SPR Binding Activity (RLCA %),[21],96%
same,SPR Binding Activity (RLCA %),[22],95%
same,SPR Binding Activity (RLCA %),[23],96%
